{
  "source": "patent US20240400621A1",
  "about": "“PEPTIDES FOR METABOLIC SYNDROME” (ALPARIS, S.A. de C.V., priority 2021, published 2024)",
  "key": {"IL-1B": {"system": "IL-1B", "experiment": "Circulating IL-1B levels in mice fed a high-fat diet", "assay_type": "in vivo, mice (C57BL/6JN)", "settings": "12 weeks; versus DAG; including SEQ ID NO: 2 at low doses", "experimental": "(§1) For all the in vivo testing, male mice of the C57BL/6JN strain between 8 to 10 weeks of age were used, housed in groups of 3 to 5 mice per cage with food and water ad libitum in ventilated racks, and whose microbiota were unified for 4 weeks.\n(§2) The mice received either 200 μL of a phosphate buffer solution (PBS) at pH 7.5 (as a vehicle), or 200 μL of the PBS solution, with each of the intragastric treatments daily for 12 weeks. They were fed either a Normal Diet (DN, Harlan, Teklad 2018SX) with 18% of the calories coming from fat, or a High-Fat Diet (DAG, Research Diets, D12491), with 60% of the calories coming from fat. […]\nTo determine the effect of the peptides SEQ ID NO: 2 and SEQ ID NO: 3 in attenuating the inflammatory process in adipose tissue, the cellular infiltrate of the adipose tissue of the mice was quantified after they had been fed DAG."}, "[1]": {"target": "human Toll-like receptor 2 (hTLR2) on HEK-Blue hTLR2 cells (human (printed as hTLR2), UniProt O60603 21-784)", "sequence (O60603 21-784)": "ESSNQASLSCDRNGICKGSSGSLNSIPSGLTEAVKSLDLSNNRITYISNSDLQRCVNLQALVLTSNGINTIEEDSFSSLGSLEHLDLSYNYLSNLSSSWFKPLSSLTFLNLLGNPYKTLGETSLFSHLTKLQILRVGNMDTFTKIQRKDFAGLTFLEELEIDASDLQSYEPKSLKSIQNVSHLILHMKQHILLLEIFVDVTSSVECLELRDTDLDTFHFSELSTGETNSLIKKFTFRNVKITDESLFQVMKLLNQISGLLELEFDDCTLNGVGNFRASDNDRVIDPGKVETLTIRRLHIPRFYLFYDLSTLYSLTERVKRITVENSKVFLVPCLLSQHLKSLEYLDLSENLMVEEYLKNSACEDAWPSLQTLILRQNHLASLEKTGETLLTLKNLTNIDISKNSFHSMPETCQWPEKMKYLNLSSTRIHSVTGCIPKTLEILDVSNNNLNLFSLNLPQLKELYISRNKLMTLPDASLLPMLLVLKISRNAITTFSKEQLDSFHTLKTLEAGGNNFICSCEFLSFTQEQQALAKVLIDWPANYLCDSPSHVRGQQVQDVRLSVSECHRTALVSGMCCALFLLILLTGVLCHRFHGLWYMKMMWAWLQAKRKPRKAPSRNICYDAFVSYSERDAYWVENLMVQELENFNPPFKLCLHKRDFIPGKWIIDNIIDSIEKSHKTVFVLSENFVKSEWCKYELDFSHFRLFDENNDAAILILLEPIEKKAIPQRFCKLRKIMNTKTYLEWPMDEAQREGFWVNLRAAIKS", "experiment": "cell-based or functional assay"}, "[2]": {"experiment": "Aggregation during ultrafiltration / buffer change", "assay_type": "physicochemical", "text": "The protein of SEQ ID NO. 1, expressed in recombinant form in this invention, contains a tag of six residues of histidine at the carboxyl terminal end, allowing it to be purified by immobilized metal cation affinity chromatography (IMAC). Purification was initially evaluated with the soluble fractions of the two strains that were used for recombinant production, obtained by enzymatic lysis and sonication. The first approach with the Ni-NTA Agarose resin allowed for the recovery of 6% of the SEQ ID NO. 1 with a purity of 50-80%. An FPLC Ákta Prime chromatographic system and an XK16/20 column packed with 13 mL of Chelating Sepharose Fast Flow-Ni^+2 resin were used for purification. A minimum imidazole concentration of 30 mM was defined in both the sample to be injected and the equilibrium buffer. Elution was performed with 500 mM imidazole at 6.5 mL/min, resulting in a minimum recovery of 80% of SEQ ID No. 1 with 82% purity. The ultrafiltration of the tangential flow of SEQ ID NO. 1 during the chromatography stage, in order to concentrate and change the buffer, negatively impacted protein quality. However, the dialysis of EQ ID NO.\nHowever, the aggregation of SEQ ID NO. […] This was corroborated by the SDSPAGE analysis, in which the remaining protein in the soluble fraction presented fragments of lower molecular weight than that of SEQ ID NO. 1, but greater than 25 kDa. On the other hand, the precipitate turned out to be denatured SEQ ID NO. 1, but not degraded.\nFinally, SEQ ID NO. 4 and SEQ ID NO."}, "mice fed a high-fat diet": {"system": "mice fed a high-fat diet", "experiment": "Glucose tolerance test (GTT) in mice fed a high-fat diet", "assay_type": "in vivo, mice (C57BL/6JN)", "settings": "12 weeks; intragastric daily; SEQ ID NO: 3 2.5 μg/mouse, SEQ ID NO: 2 0.6 or 0.2 μg/mouse", "experimental": "as §1, §2\nThe mice were subjected to fasting for 6 hours, and the baseline glucose values in the blood were determined using glucose test strips and a glucometer (Roche's ACCU-CHECK ACTIVE).\nNext, the mice received an intraperitoneal injection of 1.8 mg of glucose per gram of body weight, and the blood glucose values were recorded at 15, 30, 60, and 120 minutes after administration.\nFIGS. 19A and 19B show the area under the curve (AUC) of the glucose tolerance test of the mice, measured at week 0 and 12."}, "insulin": {"system": "insulin", "experiment": "Insulin levels (secretion in response to glucose) in mice fed a high-fat diet", "assay_type": "in vivo, mice (C57BL/6JN)", "settings": "12 weeks; versus DAG group", "experimental": "as §1\nThe mice received either 200 μL of a phosphate buffer solution (PBS) at pH 7.5 (as a vehicle), or 200 μL of the PBS solution, with each of the intragastric treatments daily for 12 weeks. They were fed either a Normal Diet (DN, Harlan, Teklad 2018SX) with 18% of the calories coming from fat, or a High-Fat Diet (DAG, Research Diets, D12491), with 60% of the calories coming from fat.\nAll the mice were randomly divided into five experimental groups in order to study the effect of SEQ ID NO: 3 and SEQ ID NO: 2 correctly: • Group 1—Mice with DN that received 200 μl of PBS intragastrically. • Group 2—Mice with DAG that received 200 μl of PBS intragastrically. • Group 3—Mice with DAG that received 200 μl of PBS with SEQ ID NO: 3 intragastrically at a dose of: 2.5 μg/mouse. • Group 4—Mice with DAG that received 200 μl of PBS with SEQ ID NO: 2 intragastrically at a dose of 0.6 μg/mouse (high dose). • Group 5—Mice with DAG that received 200 μl of PBS with SEQ ID NO: 2 intragastrically at a dose of 0.2 μg/mouse (low dose).\nThis means that the peptide SEQ ID NO: 3 improves insulin sensitivity, preventing insulin resistance from developing."}},
  "data": [
    {"molecule": "peptide SEQ ID NO: 3 (carboxyl terminal domain of SEQ ID NO: 1) (peptide) QLPIETPANNPEESDEADQAPWTPMPLEIAFQGDRESVLKAMNAITGMQDYLFTVNSIRIRNERMMPPPIANPAAAKPAAAQPATGAASLTPADEAAAPAAPAIQQVIKPYMGKEQVFVQVSLNLVHFNQPKAQEPSED", "values": [
      {"measurement": "circulating levels of IL-1B", "setting": "IL-1B", "value": "prevented the increase in the circulating levels of IL-1B"},
      {"measurement": "EC50", "setting": "[1]", "value": 25.9, "unit": "nM"},
      {"measurement": "aggregation in ultrafiltration operations", "setting": "[2]", "value": "no visible aggregation"},
      {"measurement": "glucose tolerance (AUC of GTT) versus DAG group", "setting": "mice fed a high-fat diet", "value": "improved glucose tolerance"},
      {"measurement": "insulin secretion in response to glucose administration", "setting": "insulin", "value": "statistically significant reduction in insulin secretion"}
    ]}
  ]
}
